Tests used:
[1] = biological target: T1, human C4b (human) (UniProt P0C0L4)
T1 sequence: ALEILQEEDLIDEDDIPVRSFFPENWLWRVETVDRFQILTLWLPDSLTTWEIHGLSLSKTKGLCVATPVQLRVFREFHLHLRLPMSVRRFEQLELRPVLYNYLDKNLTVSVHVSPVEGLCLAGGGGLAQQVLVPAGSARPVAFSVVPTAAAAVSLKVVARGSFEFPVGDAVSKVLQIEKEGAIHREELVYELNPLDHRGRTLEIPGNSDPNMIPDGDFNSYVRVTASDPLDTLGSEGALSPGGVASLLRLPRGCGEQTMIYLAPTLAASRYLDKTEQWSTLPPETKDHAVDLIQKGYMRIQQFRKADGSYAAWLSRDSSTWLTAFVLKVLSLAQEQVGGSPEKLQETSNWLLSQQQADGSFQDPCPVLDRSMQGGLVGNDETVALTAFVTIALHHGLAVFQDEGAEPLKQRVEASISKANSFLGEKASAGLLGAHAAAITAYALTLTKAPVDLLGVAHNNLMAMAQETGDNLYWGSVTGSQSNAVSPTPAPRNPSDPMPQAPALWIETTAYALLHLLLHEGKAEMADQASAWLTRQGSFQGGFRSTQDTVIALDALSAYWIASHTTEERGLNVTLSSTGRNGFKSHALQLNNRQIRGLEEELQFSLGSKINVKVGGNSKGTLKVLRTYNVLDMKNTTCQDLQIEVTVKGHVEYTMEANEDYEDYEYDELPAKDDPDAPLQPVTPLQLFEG

[2] = biological target: soluble human C3b (human) (UniProt P01024)
[3] = biological target: T1, human C4b (human); remark: listed apart in the source
[4] = biological target: soluble human C3b (human) (UniProt P01024); remark: listed apart in the source

Substance	C4c EC50 (nM) [1] [nM]	iC3b EC50 [2] [nM]	C4b Screen Ref Fold (fold of reference) [3]	iC3b Screen Ref Fold (fold of reference) [4]	C4b Screen Ref Fold (fold of CFI-HSA wild type) [3]	iC3b Screen Ref Fold (fold of CFI-HSA wild type) [4]	C4c EC50 [1] [nM]
CFI-HSA variant A405S (enzyme)	353	23.9	2.12	0.94	–	–	–
CFI-HSA variant D341A (enzyme)	> 1000	57.2	0.19	0.26	–	–	–
CFI-HSA variant D420G (enzyme)	63.6	7	–	–	2.71	2.53	–
CFI-HSA variant D425G (enzyme)	–	13.5	2.18	0.7	–	–	> 1000
CFI-HSA variant D425R; E457G; E461Q; N531G (enzyme)	4	2.2	–	–	4.25	1.9	–
CFI-HSA variant E392G (enzyme)	143	9.6	–	–	1.3	1.66	–
CFI-HSA variant E416A; E457G; E461Q; N531G (enzyme)	26.1	4.2	–	–	4.01	1.69	–
CFI-HSA variant E416A; K504H (enzyme)	168	20.8	–	–	0.63	0.59	–
CFI-HSA variant E416A; N422K; E457G; E461Q; Q467K; N531G (enzyme)	4.4	1.7	–	–	3.84	3.05	–
CFI-HSA variant E457G; E461Q; E530Y; N531G; P558S (enzyme)	21	5.2	–	–	4.04	1.25	–
CFI-HSA variant E457G; E461Q; F464Y; E530F; N531G; P558S (enzyme)	18.1	4.2	–	–	4.21	2.01	–
CFI-HSA variant E457G; E461Q; F464Y; K504H; N531G (enzyme)	> 1000	22.7	–	–	1.78	0.49	–
CFI-HSA variant E457G; E461Q; R462K; F464Y; E530F; N531G; P558S (enzyme)	21.4	5.5	–	–	4.65	2.22	–
CFI-HSA variant E457K (enzyme)	135	9.5	4.58	1.37	–	–	–
CFI-HSA variant E457L (enzyme)	> 1000	51.4	0.14	0.21	–	–	–
CFI-HSA variant E457M (enzyme)	482	25.4	1.6	1.05	–	–	–
CFI-HSA variant E457N (enzyme)	215	16.3	4.31	0.9	–	–	–
CFI-HSA variant E457Q (enzyme)	395	19.8	1.8	1	–	–	–
CFI-HSA variant E457R (enzyme)	182	10.5	4.6	1.42	–	–	–

Substance	C4c EC50 (nM) [1] [nM]	iC3b EC50 [2] [nM]	C4b Screen Ref Fold (fold of reference) [3]	iC3b Screen Ref Fold (fold of reference) [4]	C4b Screen Ref Fold (fold of CFI-HSA wild type) [3]	iC3b Screen Ref Fold (fold of CFI-HSA wild type) [4]	C4c EC50 [1] [nM]
CFI-HSA variant E457S (enzyme)	428	21.3	0.81	1.07	–	–	–
CFI-HSA variant E457T (enzyme)	> 1000	10.4	1.34	1.5	–	–	–
CFI-HSA variant E457V (enzyme)	567	40.6	0.99	0.8	–	–	–
CFI-HSA variant E457W (enzyme)	> 1000	110	0.09	0.15	–	–	–
CFI-HSA variant E457Y (enzyme)	> 1000	90.6	0.12	0.03	–	–	–
CFI-HSA variant E461H (enzyme)	134	11.7	3.16	1.3	–	–	–
CFI-HSA variant E461I (enzyme)	100	9.8	3.83	1.44	–	–	–
CFI-HSA variant E461L (enzyme)	87.5	7.3	4.22	1.71	–	–	–
CFI-HSA variant E461M (enzyme)	148	6.9	1.9	2.12	–	–	–
CFI-HSA variant E461V (enzyme)	64.4	8.9	4.79	2.03	–	–	–
CFI-HSA variant E530F; E457G; E461Q; N531G (enzyme)	9.1	2.9	–	–	4.17	2.48	–
CFI-HSA variant E530R (enzyme)	–	14.7	0.76	0.8	–	–	> 1000
CFI-HSA variant G406A (enzyme)	176	42.6	1.96	0.36	–	–	–
CFI-HSA variant G406D (enzyme)	> 1000	151	0.33	0.12	–	–	–
CFI-HSA variant G406D; Y408L (enzyme)	–	78.2	0.15	-0.02	–	–	> 1000
CFI-HSA variant G406E (enzyme)	> 1000	116	0.88	0.13	–	–	–
CFI-HSA variant G406F (enzyme)	–	37.2	0.72	0.73	–	–	> 1000
CFI-HSA variant G406H (enzyme)	–	20.4	1.17	0.6	–	–	197
